T1: Cas12i-135 (N295R,N260R,G705R,L475R)
T1 chain: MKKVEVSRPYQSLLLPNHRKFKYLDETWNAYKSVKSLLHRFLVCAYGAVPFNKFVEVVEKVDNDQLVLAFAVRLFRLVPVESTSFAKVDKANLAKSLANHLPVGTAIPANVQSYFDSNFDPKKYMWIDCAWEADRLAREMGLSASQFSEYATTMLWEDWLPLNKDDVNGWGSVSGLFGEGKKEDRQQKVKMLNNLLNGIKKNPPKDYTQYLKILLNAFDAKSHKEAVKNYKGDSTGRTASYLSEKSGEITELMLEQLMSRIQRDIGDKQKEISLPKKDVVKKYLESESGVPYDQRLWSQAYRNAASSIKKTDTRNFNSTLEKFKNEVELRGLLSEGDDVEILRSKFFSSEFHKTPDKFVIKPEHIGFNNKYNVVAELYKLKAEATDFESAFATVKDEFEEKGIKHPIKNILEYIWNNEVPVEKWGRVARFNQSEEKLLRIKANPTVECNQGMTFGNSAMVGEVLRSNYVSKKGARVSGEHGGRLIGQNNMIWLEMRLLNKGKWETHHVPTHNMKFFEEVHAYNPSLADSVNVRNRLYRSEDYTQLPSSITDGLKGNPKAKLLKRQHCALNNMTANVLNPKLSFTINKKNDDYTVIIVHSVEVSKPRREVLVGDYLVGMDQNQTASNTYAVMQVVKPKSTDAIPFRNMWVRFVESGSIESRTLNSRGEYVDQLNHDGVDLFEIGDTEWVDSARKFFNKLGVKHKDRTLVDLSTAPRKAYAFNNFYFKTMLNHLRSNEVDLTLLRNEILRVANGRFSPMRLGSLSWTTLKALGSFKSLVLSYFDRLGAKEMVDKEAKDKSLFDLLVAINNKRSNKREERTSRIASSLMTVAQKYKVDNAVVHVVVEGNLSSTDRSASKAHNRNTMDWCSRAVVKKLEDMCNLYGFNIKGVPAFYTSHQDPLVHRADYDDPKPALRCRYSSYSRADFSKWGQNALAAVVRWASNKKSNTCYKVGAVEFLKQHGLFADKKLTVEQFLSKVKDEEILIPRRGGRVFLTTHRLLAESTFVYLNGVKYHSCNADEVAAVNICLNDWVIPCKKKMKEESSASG

T2: Cas12i-69 (N295R,N260R,G705R)
T2 chain: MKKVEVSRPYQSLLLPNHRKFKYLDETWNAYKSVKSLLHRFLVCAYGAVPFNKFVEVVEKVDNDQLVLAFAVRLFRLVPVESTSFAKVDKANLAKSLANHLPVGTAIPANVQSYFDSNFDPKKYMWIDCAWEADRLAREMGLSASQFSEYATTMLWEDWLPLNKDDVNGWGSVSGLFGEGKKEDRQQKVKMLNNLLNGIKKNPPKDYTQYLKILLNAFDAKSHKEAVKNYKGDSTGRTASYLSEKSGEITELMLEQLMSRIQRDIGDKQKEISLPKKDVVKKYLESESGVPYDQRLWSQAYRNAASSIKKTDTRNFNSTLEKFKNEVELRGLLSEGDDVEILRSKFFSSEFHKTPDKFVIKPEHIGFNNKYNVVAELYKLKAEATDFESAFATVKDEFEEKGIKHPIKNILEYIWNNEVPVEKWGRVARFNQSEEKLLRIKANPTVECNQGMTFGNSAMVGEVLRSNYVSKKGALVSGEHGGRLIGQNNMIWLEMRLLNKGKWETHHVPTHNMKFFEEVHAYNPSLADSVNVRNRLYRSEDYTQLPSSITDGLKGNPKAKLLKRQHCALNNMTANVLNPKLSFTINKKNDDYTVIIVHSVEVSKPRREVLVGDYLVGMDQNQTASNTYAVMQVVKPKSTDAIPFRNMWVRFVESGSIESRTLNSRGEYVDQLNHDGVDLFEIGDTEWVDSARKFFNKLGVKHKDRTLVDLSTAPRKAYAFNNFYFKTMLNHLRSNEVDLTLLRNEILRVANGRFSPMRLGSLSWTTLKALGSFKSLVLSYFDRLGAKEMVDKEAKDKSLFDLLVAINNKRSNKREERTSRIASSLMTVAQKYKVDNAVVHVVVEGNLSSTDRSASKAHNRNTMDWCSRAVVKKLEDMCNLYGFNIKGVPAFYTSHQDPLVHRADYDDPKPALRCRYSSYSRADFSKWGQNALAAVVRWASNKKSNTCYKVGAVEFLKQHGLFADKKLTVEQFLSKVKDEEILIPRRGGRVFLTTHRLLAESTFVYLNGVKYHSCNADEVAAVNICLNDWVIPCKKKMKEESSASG


What was measured:
Cas12i-135 = biological target: T1, Cas12i-135; test: cell_activity; 293T indels
Experimental: (§1) Plating: The 293T cell line was plated when the confluence reached 70-80%, and the number of cells seeded in a 24-well plate was 5*10\hat{ }5 cells/well.
(§2) Transfection: After 12-14 hours of plating, transfection was performed. 100 μl of Opti-MEM, 1.5 μl of PEI (Yisheng Bio, Polyethylenimine Linear (PEI) MW25000), 250 ng of the mutant clone plasmid from Example 2, and 250 ng of gRNA plasmid for targeting endogenous genes were added to each well of a 24-well plate. The mixture was incubated at room temperature for 20 minutes and then added to 293T cells for transfection. After transfection overnight, the medium was replaced with fresh medium and cultured for the next period.
(§3) DNA extraction, PCR amplification, and Sanger sequencing: After culturing for 72 hours, cells were washed with PBS, and then 100 μl of cell lysis buffer (Viagen, DirectPCR® Lysis Reagent (Cell)) was added for lysis to obtain a lysate containing genomic DNA. The genomic DNA was amplified in the region near the target sequence, and the PCR product was sent to a sequencing company for Sanger sequencing.

Cas12i-69 = biological target: T2, Cas12i-69; test: cell_activity; 293T indels; editing >3%
Experimental: as §1, §2, §3

Binder	relative indel editing efficiency (Cas12i-135)	relative indel editing efficiency (Cas12i-69)
gRNA-TTR ; TTR target (ssRNA ; dsDNA) RNA: AGAGAAUGUGUGCAUAGUCACACCAGUAAGAUUUGGUGUCUAU DNA 1: CAGTAAGATTTGGTGTCTAT DNA 2: ATAGACACCAAATCTTACTG	1.73 fold of Cas12i-69	
gRNA-HBG ; HBG target (ssRNA ; dsDNA) RNA: AGAGAAUGUGUGCAUAGUCACACACAAGGCAAACUUGACCAAU DNA 1: ACAAGGCAAACTTGACCAAT DNA 2: ATTGGTCAAGTTTGCCTTGT		1.27 fold of wild type
